Results published in patent US20030064916A1.

Biological target: HLA-A2.1 (human), A*02:0
Test: cell-based or functional assay

With “A2-specific monoclonal antibody PA2.1 (ATCC HB 117)” the Specific 51Cr release (%) by CTL A2 149, E:T 10, BT 549 targets, with anti-A2 (53 without) was 37%, the Specific 51Cr release (%) by CTL A2 149, E:T 10, MCF7 targets, with anti-A2 (38 without) was 13% and the Specific 51Cr release (%) by CTL A2 149, E:T 10, MDA 231 targets, with anti-A2 (24 without) was 5%. The Specific 51Cr release (%) by CTL A2 149, E:T 10, Ramos A2.1 targets, with anti-A2 (39 without) was 12%, the Specific 51Cr release (%) by CTL A2 149, E:T 10, SW 480 targets, with anti-A2 (55 without) was 26% and the Specific 51Cr release (%) by CTL A2 264, E:T 10, BT 549 targets, with anti-A2 (79 without) was 47%. It also gave a Specific 51Cr release (%) by CTL A2 264, E:T 10, MCF7 targets, with anti-A2 (79 without) of 38%, a Specific 51Cr release (%) by CTL A2 264, E:T 10, MDA 231 targets, with anti-A2 (31 without) of 10% and a Specific 51Cr release (%) by CTL A2 264, E:T 10, Ramos A2.1 targets, with anti-A2 (43 without) of 0%. The Specific 51Cr release (%) by CTL A2 264, E:T 10, SW 480 targets, with anti-A2 (59 without) was 17%.
